Assay results published in publication PMC9478924.

Target: EVA-4 (UniProt P0C8E9)
Experiment: SPR

CCL13, Q99616 17-98 (ligand; biotin on the Avi-tag (Bir-A ligase); other documents disagree on this pair), sequence (Q99616 17-98): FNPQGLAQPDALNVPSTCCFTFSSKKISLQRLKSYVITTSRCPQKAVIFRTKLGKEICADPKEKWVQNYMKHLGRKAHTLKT
EVA-4, sequence (P0C8E9 24-127): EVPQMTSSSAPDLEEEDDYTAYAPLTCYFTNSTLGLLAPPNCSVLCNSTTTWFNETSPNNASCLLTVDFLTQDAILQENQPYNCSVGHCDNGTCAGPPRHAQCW

Kd: 253 nM
Substance: CCL13, Q99616 17-98 (ligand; biotin on the Avi-tag (Bir-A ligase); other documents disagree on this pair)
